Laboratory results as given in paper PMC6239178, “The binding of Class II sRNA MgrR to two different sites on matchmaker protein Hfq enables efficient competition for Hfq and annealing to regulated mRNAs”.
Where a chain is given by its changes, count along the chain named.

Columns and labels:
Hfq wt [1] = target: T1, Hfq wt (Escherichia coli, UniProt P0A6X3 1-102); assay: EMSA; ternary complex with MgrR, annealing not markedly affected; HBB buffer (composition not in material); competition and dissociation at RT; Kd gelshift 0.1 nM 32P-MgrR, 2 h RT, 5% native gel in TBM (89 mM Tris, 89 mM borat); conditions: protein: recombinant; pET15b); chain copies: 6
Hfq wt [2] = target: T1, Hfq wt; assay: EMSA; ternary complex with MgrR, unaffected; HBB buffer (composition not in material); competition and dissociation at RT; Kd gelshift 0.1 nM 32P-MgrR, 2 h RT, 5% native gel in TBM (89 mM Tris, 89 mM borat); conditions: protein: recombinant; pET15b); chain copies: 6
Hfq wt [3] = target: T1, Hfq wt; assay: filter binding; 32P-A27 complex displaced by MgrR; HBB buffer (composition not in material); competition and dissociation at RT; Kd gelshift 0.1 nM 32P-MgrR, 2 h RT, 5% native gel in TBM (89 mM Tris, 89 mM borat); conditions: protein: recombinant; pET15b); chain copies: 6; label: 32P or unlabeled; single-stranded
Hfq wt [4] = target: T1, Hfq wt; assay: filter binding; 32P-U18 complex displaced by MgrR; HBB buffer (composition not in material); competition and dissociation at RT; Kd gelshift 0.1 nM 32P-MgrR, 2 h RT, 5% native gel in TBM (89 mM Tris, 89 mM borat); conditions: protein: recombinant; pET15b); chain copies: 6; label: 32P or unlabeled; single-stranded

T1 sequence (P0A6X3 whole entry): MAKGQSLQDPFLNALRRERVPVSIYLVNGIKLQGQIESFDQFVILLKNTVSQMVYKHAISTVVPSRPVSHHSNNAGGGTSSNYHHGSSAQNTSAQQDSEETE

B1: eptB133_AU1_v1 (structured_RNA)
RNA: GCGCGUGUAGACCGCACUUAUCUGACUACCUCCGCACUUUUUCCCUGCCGGGCCUGAAAAGCCACUAAGCAGGGUGUUAUCACCUGUUUGUCCAGGGUUUGUUUGCAUGAGAUACAUCAAAUCGAUUACACAG
Hfq wt [1]
  binding result: binds

B2: eptB133_AU1_v2 (structured_RNA)
RNA: B1 RNA with A11U, C12U, C13U, G14U, C15U, A16U, A20U
Hfq wt [1]
  binding result: binds

B3: ygdQ145_AU3 (structured_RNA)
RNA: GCUUCAUUUUUUUGGCAGGGCUUUUUAGAUGUUAUUUGCAUGGAUAACCGAUCCUAACGCCUGGCUUGCGCUCGGUACGCUGACGCUGCUGGAGAUCGUUCUUGGGAUCGACAAUGUGCUGGUCCUCUCUCUGGUGGUGGCAAAG
Hfq wt [2]
  binding result: binds

B4: A27 (ssRNA)
RNA: AAAAAAAAAAAAAAAAAAAAAAAAAAA
Hfq wt [3]
  binding result: binds

B5: U18 (ssRNA)
RNA: UUUUUUUUUUUUUUUUUU
Hfq wt [4]
  binding result: binds
